According to patent publication US20030198640A1 (Human Genome Sciences, published 2003):

Assays:
Experiment in all cases: flow cytometry on transiently transfected cells
[1] = biological target: T1, AITR on transiently transfected cells (UniProt Q9Y5U5 26-241, limits assumed)
T1 construct: whole, on cells
T1 sequence (looked up): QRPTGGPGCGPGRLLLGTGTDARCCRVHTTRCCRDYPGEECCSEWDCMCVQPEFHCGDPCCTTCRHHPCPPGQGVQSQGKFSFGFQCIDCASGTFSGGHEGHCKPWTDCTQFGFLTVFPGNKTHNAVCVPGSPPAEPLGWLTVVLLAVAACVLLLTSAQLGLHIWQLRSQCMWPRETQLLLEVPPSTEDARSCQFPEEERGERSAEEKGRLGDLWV
Procedure: (§1) One million cells, in 0.1 ml of FACS buffer (PBS, 0.1% BSA, 0.1% NaN₃), were incubated with 0.1-1 microgram of protein or antibody at RT for 15 min. The cells were washed with 3 ml of FACS buffer, reacted with biotinylated primary antibody, and stained with PE-conjugated secondary antibody at RT for 15 min. Cells were then washed again, resuspended in 0.5 microgram/ml of propidium iodide, and live cells were gated and analyzed on a FACScan using the CellQuest software (BD Biosciences).

[2] = biological target: T2, 4-1BB on transiently transfected cells (UniProt Q07011 24-255)
T2 construct: whole, on cells
Procedure: as §1

[3] = biological target: T3, DR4 on transiently transfected cells (UniProt O00220 24-468, limits assumed)
T3 construct: whole, on cells
T3 sequence (looked up): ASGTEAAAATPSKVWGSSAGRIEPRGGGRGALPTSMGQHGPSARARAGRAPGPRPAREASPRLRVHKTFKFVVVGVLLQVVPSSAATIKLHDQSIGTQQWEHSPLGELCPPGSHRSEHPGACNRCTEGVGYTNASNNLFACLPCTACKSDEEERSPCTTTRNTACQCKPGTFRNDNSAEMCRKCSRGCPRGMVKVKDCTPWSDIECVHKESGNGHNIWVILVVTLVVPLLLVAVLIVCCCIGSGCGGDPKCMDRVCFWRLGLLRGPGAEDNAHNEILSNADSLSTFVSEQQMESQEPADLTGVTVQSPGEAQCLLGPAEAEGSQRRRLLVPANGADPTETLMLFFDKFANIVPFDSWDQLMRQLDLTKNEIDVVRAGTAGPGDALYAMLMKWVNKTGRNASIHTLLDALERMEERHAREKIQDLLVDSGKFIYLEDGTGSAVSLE
Procedure: as §1

[4] = biological target: T4, TNFR2 on transiently transfected cells (UniProt P20333 23-461, limits assumed)
T4 construct: whole, on cells
T4 sequence (looked up): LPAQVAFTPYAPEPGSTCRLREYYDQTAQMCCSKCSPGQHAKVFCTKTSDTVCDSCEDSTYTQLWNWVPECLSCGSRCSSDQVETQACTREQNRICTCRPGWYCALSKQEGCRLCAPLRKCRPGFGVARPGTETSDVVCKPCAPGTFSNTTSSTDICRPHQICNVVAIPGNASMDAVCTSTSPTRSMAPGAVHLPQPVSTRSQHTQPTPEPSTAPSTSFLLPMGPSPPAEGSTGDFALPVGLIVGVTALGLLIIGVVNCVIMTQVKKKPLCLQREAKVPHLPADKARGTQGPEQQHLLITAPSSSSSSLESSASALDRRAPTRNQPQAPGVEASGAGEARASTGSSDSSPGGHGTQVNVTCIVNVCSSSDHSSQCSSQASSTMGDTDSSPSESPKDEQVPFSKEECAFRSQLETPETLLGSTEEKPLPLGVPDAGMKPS
Procedure: as §1

[5] = biological target: T5, BCMA on transiently transfected cells (UniProt Q02223 1-184, limits assumed)
T5 construct: whole, on cells
T5 sequence (looked up): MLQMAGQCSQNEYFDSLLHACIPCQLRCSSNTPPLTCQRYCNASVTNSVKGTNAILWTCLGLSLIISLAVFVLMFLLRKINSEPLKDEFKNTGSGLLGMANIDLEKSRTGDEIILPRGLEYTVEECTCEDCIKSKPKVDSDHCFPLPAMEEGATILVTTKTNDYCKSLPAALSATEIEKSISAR
Procedure: as §1

[6] = biological target: T6, CD27 on transiently transfected cells (UniProt P26842 20-260, limits assumed)
T6 construct: whole, on cells
T6 sequence (looked up): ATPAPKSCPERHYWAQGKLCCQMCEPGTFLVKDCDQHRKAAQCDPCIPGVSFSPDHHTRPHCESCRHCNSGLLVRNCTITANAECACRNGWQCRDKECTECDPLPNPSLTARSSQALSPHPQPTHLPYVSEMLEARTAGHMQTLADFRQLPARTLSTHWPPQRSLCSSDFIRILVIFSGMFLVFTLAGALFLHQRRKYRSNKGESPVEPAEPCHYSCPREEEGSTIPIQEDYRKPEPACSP
Procedure: as §1

[7] = biological target: T7, RANK on transiently transfected cells (UniProt Q9Y6Q6 30-616, limits assumed)
T7 construct: whole, on cells
T7 sequence (looked up): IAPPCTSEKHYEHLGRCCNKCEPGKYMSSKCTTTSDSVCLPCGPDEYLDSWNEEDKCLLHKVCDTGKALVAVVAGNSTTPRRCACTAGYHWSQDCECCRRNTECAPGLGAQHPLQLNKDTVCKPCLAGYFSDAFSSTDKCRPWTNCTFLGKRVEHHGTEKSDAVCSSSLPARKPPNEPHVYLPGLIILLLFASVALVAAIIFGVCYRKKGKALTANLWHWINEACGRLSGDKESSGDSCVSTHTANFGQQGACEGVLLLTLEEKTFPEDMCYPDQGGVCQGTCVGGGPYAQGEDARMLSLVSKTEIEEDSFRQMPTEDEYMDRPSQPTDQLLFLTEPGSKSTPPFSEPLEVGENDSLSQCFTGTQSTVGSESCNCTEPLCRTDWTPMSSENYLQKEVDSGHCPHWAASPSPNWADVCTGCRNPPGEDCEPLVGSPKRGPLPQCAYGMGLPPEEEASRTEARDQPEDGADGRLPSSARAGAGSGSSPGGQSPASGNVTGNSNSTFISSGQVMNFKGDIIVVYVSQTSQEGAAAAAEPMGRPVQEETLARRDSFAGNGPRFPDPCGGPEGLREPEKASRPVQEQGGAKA
Procedure: as §1

[8] = biological target: T8, HveA on transiently transfected cells (UniProt Q92956 39-283, limits assumed)
T8 construct: whole, on cells
T8 sequence (looked up): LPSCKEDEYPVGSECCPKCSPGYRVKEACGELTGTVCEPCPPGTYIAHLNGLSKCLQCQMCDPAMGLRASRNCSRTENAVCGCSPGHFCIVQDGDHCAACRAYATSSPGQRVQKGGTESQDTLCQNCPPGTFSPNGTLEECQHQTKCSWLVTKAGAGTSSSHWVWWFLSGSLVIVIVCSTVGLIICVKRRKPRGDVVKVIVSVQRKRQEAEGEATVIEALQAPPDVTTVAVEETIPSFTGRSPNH
Procedure: as §1

[9] = biological target: T9, DR5 on transiently transfected cells (UniProt O14763 56-440, limits assumed)
T9 construct: whole, on cells
Procedure: as §1

Measured: binding result

T2 sequence (Q07011 24-255): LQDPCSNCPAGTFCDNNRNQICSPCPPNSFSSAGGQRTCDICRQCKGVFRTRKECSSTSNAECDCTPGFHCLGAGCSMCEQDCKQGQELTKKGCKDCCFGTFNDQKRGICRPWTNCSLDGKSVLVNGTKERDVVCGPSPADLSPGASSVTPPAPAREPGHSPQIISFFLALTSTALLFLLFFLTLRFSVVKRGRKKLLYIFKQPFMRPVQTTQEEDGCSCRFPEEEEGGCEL

B1: FLAG-tagged soluble form of TNF-gamma-beta (aa 72-251) (ligand)
chain: LKGQEFAPSHQQVYAPLRADGDKPRAHLTVVRQTPTQHFKNQFPALHWEHELGLAFTKNRMNYTNKFLLIPESGDYFIYSQVTFRGMTSECSEIRQAGRPNKPDSITVVITKVTDSYPEPTQLLMGTKSVCEVGSNWFQPIYLGAMFSLQEGDKLMVNVSDISLVDYTKEDKTFFGAFLL
notes: also called FLAG-TL1β; FLAG-TNF-gamma-beta; not shown: FLAG tag of the pFLAG-CMV-1 vector at the amino terminus
no binding: [1] | [2] | [3] | [4] | [5] | [6] | [7] | [8] | [9]
